Assay results taken from patent US20230094162A1 (MacroGenics, published 2023).
Read-outs that look alike come from different tables or passages of the source.

Columns and labels:
[1] = target: T1, PD-L1 expressed on the cell surface (CHO/PD-L1 cells) (UniProt Q9NZQ7 19-290); assay: cell-based or functional assay
[2] = target: T1, PD-L1 expressed on the cell surface …; assay: flow cytometry (FACS) on JIMT-1 cells (PD-L1 positive), MFI
[3] = target: T1, PD-L1 expressed on the cell surface …; assay: cell-based or functional assay; remark: listed apart in the source
[4] = target: T2, CD137 expressed on the cell surface (CHO/CD137 cells) (UniProt Q07011 24-255, limits assumed); assay: flow cytometry (FACS) on CHO cells expressing CD137, MFI
T2 construct: whole, on cells; also called cell surface CD137; Jurkat-NF-κB-Luc reporter cells overexpressing CD137
Description: FACS analysis to evaluate the test articles for binding to cell surface CD137 was performed essentially as follows: 100 μL of CHO cells expressing CD137 (CHO/CD137) (1.0×10⁵ to 1×10⁶ cells/well) and 100 μL of serially diluted test article or control was added to each well of microtiter assay plate(s), mixed and incubated at RT for about 30 min. The cells were washed with FACS Buffer and secondary antibody (goat anti-human-APC, PE, or FITC) was then added to each well (1:1000), after which, the components were mixed and the wells were incubated at RT for about 30 min. Cells were washed and resuspended in 250 μL FACS Buffer and analyzed by flow cytometry (BD LSR Fortessa or FACSCanto II) for cell events collection. Data analysis were performed via FloJo v10.

[5] = target: T2, CD137 expressed on the cell surface …; assay: as above; remark: listed apart in the source
[6] = target: T1, PD-L1 expressed on the cell surface …; assay: cell-based or functional assay; remark: listed apart in the source

T1 sequence (Q9NZQ7 19-290): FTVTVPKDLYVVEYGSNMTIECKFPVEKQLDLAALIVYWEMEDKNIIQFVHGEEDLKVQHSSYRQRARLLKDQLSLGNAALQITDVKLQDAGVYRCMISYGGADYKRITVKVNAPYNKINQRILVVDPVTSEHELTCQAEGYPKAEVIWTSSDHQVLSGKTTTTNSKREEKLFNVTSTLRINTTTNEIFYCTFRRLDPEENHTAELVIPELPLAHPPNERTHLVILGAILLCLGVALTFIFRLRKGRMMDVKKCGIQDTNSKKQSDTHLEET
T2 sequence (Q07011 24-255 limits assumed): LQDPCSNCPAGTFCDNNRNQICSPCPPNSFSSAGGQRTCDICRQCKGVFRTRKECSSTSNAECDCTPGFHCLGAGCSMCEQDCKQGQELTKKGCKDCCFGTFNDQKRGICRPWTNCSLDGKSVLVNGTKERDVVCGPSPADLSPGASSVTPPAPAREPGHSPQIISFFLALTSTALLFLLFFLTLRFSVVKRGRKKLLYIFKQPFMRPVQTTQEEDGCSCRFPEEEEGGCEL

| EC50 (read off the curve) [1] [µg/mL] | EC50 (read off the curve) [2] [µg/mL] | EC50 (read off the curve) [3] [µg/mL] | EC50 (read off the curve) [4] [µg/mL] | EC50 (read off the curve) [5] [µg/mL] | EC50 (read off the curve) [6] [µg/mL] | Binder |
| --- | --- | --- | --- | --- | --- | --- |
| ~0.1 | ~0.007 |  |  |  |  | DART-A1 (bispecific antibody) first and third polypeptide chains: DIQMTQSPSSLSASVGDRVTITCKASQDVNTAVAWYQQKPGKAPKLLIYWASTRHTGVPSRFSGSGSGTDFTLTISSLQPEDFATYYCQQHYNTPLTFGQGTKVEIKGGGSGGGGQVQLQESGPGLVKPSETLSLTCTVSGGSISSYYWSWIRQPPGKGLEWIGRIYTSGSTNYNPSLKSRVTMSVDTSKNQFSLKLSSVTAADTAVYYCARDGWYDEDYNYYGMDVWGQGTTVTVSSGGCGGGEVAACEKEVAALEKEVAALEKEVAALEKLEPKSADKTHTCPPCPAPEAAGGPSVFLFPPKPKDTLYITREPEVTCVVVDVSHEDPEVKFNWYVDGVEVHNAKTKPREEQYNSTYRVVSVLTVLHQDWLNGKEYKCKVSNKALPAPIEKTISKAKGQPREPQVYTLPPSREEMTKNQVSLTCLVKGFYPSDIAVEWESNGQPENNYKTTPPVLDSDGSFFLYSKLTVDKSRWQQGNVFSCSVMHEALHNHYTQKSLSLSPGK second and fourth polypeptide chains: EIVMTQSPATLSLTPGERATLSCRASQSVSSNYLSWFQQIPGQAPRLLIYGASTRATGIPARFSGSGSGTDFTLTISSLQPEDFAVYYCQQDYDLPWTFGQGTKVEIKGGGSGGGGEVQLVESGGGLVQPGGSLRLSCAASGFTFSSYTMSWVRQAPGKGLEWVAYISIGGGTTYYPDTVKGRFTISRDNAKNSLYLQMNSLRAEDTAVYYCARQGLPYYFDYWGQGTLVTVSSGGCGGGKVAACKEKVAALKEKVAALKEKVAALKE |
|  |  | ~0.2 | ~0.05 | ~0.02 |  | DART-A6 (bispecific antibody, Tetravalent; CD137 MAB-6(1.3) and hPD-L1 MAB-2(3.2)) chain 1: DIQMTQSPSSLSASVGDRVTITCKASQDVNEAVAWYQQKPGKAPKLLIYWASTRHTGVPSRFSGSGSGTDFTLTISSLQPEDFATYYCQQHYNTPLTFGQGTKVEIKGGGSGGGGQVQLQESGPGLVKPSETLSLTCTVSGGSISSYYWSWIRQPPGKGLEWIGRIYTSGSTNYNPSLKSRVTMSVDTSKNQFSLKLSSVTAADTAVYYCARDGWYDEDYNYYGMDVWGQGTTVTVSSGGCGGGEVAACEKEVAALEKEVAALEKEVAALEKLEPKSADKTHTCPPCPAPEAAGGPSVFLFPPKPKDTLYITREPEVTCVVVDVSHEDPEVKFNWYVDGVEVHNAKTKPREEQYNSTYRVVSVLTVLHQDWLNGKEYKCKVSNKALPAPIEKTISKAKGQPREPQVYTLPPSREEMTKNQVSLTCLVKGFYPSDIAVEWESNGQPENNYKTTPPVLDSDGSFFLYSKLTVDKSRWQQGNVFSCSVMHEALHNHYTQKSLSLSPGK chain 2: EIVMTQSPATLSLSPGERATLSCRASQSVSSNYLSWFQQKPGQAPRLLIYGASTRATGIPARFSGSGSGTDFTLTISSLQPEDFAVYYCQQDYDLPWTFGQGTKVEIKGGGSGGGGEVQLVESGGGLVQPGGSLRLSCAASGFTFSSYTMSWVRQAPGKGLEWVAYISIKGGTTYYPDTVKGRFTISRDNAKNSLYLQMNSLRAEDTAVYYCARQGLPYYGDYWGQGTLVTVSSGGCGGGKVAACKEKVAALKEKVAALKEKVAALKE |
| ~0.08 | ~0.004 | ~0.2 | ~0.04 | ~0.02 | ~0.1 | DART-A4 (bispecific antibody, Tetravalent; CD137 MAB-6(1.1) and hPD-L1 MAB-2(3.2)) chain 1: DIQMTQSPSSLSASVGDRVTITCKASQDVNEAVAWYQQKPGKAPKLLIYWASTRHTGVPSRFSGSGSGTDFTLTISSLQPEDFATYYCQQHYNTPLTFGQGTKVEIKGGGSGGGGQVQLQESGPGLVKPSETLSLTCTVSGGSISSYYWSWIRQPPGKGLEWIGRIYTSGSTNYNPSLKSRVTMSVDTSKNQFSLKLSSVTAADTAVYYCARDGWYDEDYNYYGMDVWGQGTTVTVSSGGCGGGEVAACEKEVAALEKEVAALEKEVAALEKLEPKSADKTHTCPPCPAPEAAGGPSVFLFPPKPKDTLYITREPEVTCVVVDVSHEDPEVKFNWYVDGVEVHNAKTKPREEQYNSTYRVVSVLTVLHQDWLNGKEYKCKVSNKALPAPIEKTISKAKGQPREPQVYTLPPSREEMTKNQVSLTCLVKGFYPSDIAVEWESNGQPENNYKTTPPVLDSDGSFFLYSKLTVDKSRWQQGNVFSCSVMHEALHNHYTQKSLSLSPGK chain 2: EIVMTQSPATLSLTPGERATLSCRASQSVSSNYLSWFQQIPGQAPRLLIYGASTRATGIPARFSGSGSGTDFTLTISSLQPEDFAVYYCQQDYDLPWTFGQGTKVEIKGGGSGGGGEVQLVESGGGLVQPGGSLRLSCAASGFTFSSYTMSWVRQAPGKGLEWVAYISIKGGTTYYPDTVKGRFTISRDNAKNSLYLQMNSLRAEDTAVYYCARQGLPYYGDYWGQGTLVTVSSGGCGGGKVAACKEKVAALKEKVAALKEKVAALKE |
|  |  |  |  | ~0.02 |  | DART-A5 (bispecific antibody, Tetravalent; CD137 MAB-6(1.2) and hPD-L1 MAB-2(3.2)) chain 1: DIQMTQSPSSLSASVGDRVTITCKASQDVNEAVAWYQQKPGKAPKLLIYWASTRHTGVPSRFSGSGSGTDFTLTISSLQPEDFATYYCQQHYNTPLTFGQGTKVEIKGGGSGGGGQVQLQESGPGLVKPSETLSLTCTVSGGSISSYYWSWIRQPPGKGLEWIGRIYTSGSTNYNPSLKSRVTMSVDTSKNQFSLKLSSVTAADTAVYYCARDGWYDEDYNYYGMDVWGQGTTVTVSSGGCGGGEVAACEKEVAALEKEVAALEKEVAALEKLEPKSADKTHTCPPCPAPEAAGGPSVFLFPPKPKDTLYITREPEVTCVVVDVSHEDPEVKFNWYVDGVEVHNAKTKPREEQYNSTYRVVSVLTVLHQDWLNGKEYKCKVSNKALPAPIEKTISKAKGQPREPQVYTLPPSREEMTKNQVSLTCLVKGFYPSDIAVEWESNGQPENNYKTTPPVLDSDGSFFLYSKLTVDKSRWQQGNVFSCSVMHEALHNHYTQKSLSLSPGK chain 2: EIVMTQSPATLSLSPGERATLSCRASQSVSSNYLSWYQQKPGQAPRLLIYGASTRATGIPARFSGSGSGTDFTLTISSLQPEDFAVYYCQQDYDLPWTFGQGTKVEIKGGGSGGGGEVQLVESGGGLVQPGGSLRLSCAASGFTFSSYTMSWVRQAPGKGLEWVAYISIKGGTTYYPDTVKGRFTISRDNAKNSLYLQMNSLRAEDTAVYYCARQGLPYYGDYWGQGTLVTVSSGGCGGGKVAACKEKVAALKEKVAALKEKVAALKE |
